B1: TPR t1 (parent)
chain: GACCAAUCUGCCCUCAGAGCUCGAGAACAUCUUCGGAUGCAGAGGAGGCAGGCUUCGGUGGCGCGAUAGCGCCAACGUCCUCAACCUCCAAUGCAUCCCACCACAUGAUGAUGCCUGAAGAGCCUUGGUUUUUUG

Variants of: B1
Experiment: polymerase ribozyme fitness, log enrichment relative to wild type (log ratio); higher = more active; in vitro selection for triplet polymerase activity
How it was run: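 Fitness measures genotype enrichment against wild-type enrichment on a logarithmic scale, with inverse-variance-weighted averaging of replicates. The logarithm is base 2, and genotypes were kept only with ≥10 input reads and ≥1 read per output in Illumina sequencing. The sequenced libraries came from one triplicate in vitro selection round, including frozen incubation at −7 °C, of PCR-built, transcribed mutant libraries of each subunit of a heterodimeric triplet polymerase ribozyme.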

| Variant | polymerase ribozyme fitness (log ratio) |
| --- | --- |
| G17A G69A C102U C114G U131G | -6.68 |
| A18C A66U | -5.53 |
| A18G U129C | -4.73 |
| A18G C22G C104A | -5.54 |
| G17A G69C | -3.95 |
| A18C A43U | 0.3 |
| A18C C20A G93A G113A C124U U126G | -4.14 |
| A18U G45C G57C G69U | -1.15 |
| G19A U109A | -5.74 |
| G17A A75G C89A A90G | -3.23 |
| G19C C72A C124A U129G | -0.719 |
| G19C U78C G110C | -5.42 |
| G19C C70U | -2.55 |
| G19C G52A C88A U112G C114A | -6.11 |
| A18C A100C | -4.31 |
| G17C U38G C70G A95C C99A C104U A105G G110C | -6.76 |
| A18C G61A A108U C115U C123U | -6.75 |
| G17A G63U A90C U112A | -5.03 |
| G19A U32A A84U | -6.42 |
| A18U A75U C76G U129G | -5.7 |
| G17U G48U C115G G120A | -1.53 |
| A18U C72G U130A | -4.54 |
| A18U C76A G93C | -4.09 |
| G17A A37U A50C | -4.99 |

| Variant | polymerase ribozyme fitness (log ratio) |
| --- | --- |
| A18C C53U C70U | -4.83 |
| A18C C86G | -3.25 |
| A18C G60A U78G G110C U131A | -7.27 |
| A18C G69U | -0.162 |
| A18C G69A | -6.17 |
| G17U C20U A26G G42C A83U C124U U130G | -5.83 |
| G19C G36A G48A C82U C124A | -3.64 |
| G17U G47U | -5.05 |
| G17U G71U | -2.1 |
| A18C A29U | -4.04 |
| G19C A84G | -3.14 |
| A18U C49U A68U U92A U96A G110C | -7.53 |
| A16U U116C | -0.734 |
| G17C G77U A91U C123A U132A | -3.88 |
| A18U A29G C56A C80A | -6.14 |
| A18U G120A | -1.14 |
| G17U A37U G60A C82U | -2.4 |
| G17U C20U C49A C73G C115A | -1.32 |
| G19U A41C G48U G120U | -4.33 |
| G19U A74U G113A | -2.19 |
| A18C U78A U112G G122U | -4.43 |
| G17A G63A | -4.79 |
| A18C C56G C72U | -1.24 |
| G17A A46C | -3.18 |

| Variant | polymerase ribozyme fitness (log ratio) |
| --- | --- |
| G17A U116C G120U | -5.7 |
| G19C C40U G48U G110C | -6.52 |
| A18C G63U | -4.53 |
| G17C C72U C88A | -4.4 |
| G17A G48U G69C C88G | -5.4 |
| A18G C70U A95U C124A | -4.13 |
| G17U C49U G93A | -4.22 |
| A18G C101G G117C | -4.66 |
| G19U A41U G71A | -5.44 |
| A18C C62U U87C | -3.61 |
| A18U U92G | -3.54 |
| G17U U59C A108G A118U | -5.03 |
| A18U U55G C82G G120A | -3.38 |
| G19C C62U C64U G120C | -2.12 |
| A18U A74U | -3.3 |
| G19A G77U U81A C114A | -1.67 |
| G19C G36C G71U U112G U116C | -3.91 |
| A18G G39U | -3.93 |
| G17U C40A G48U C70U C99A G113A G117C | -6.87 |
| G17C U54G G61A C94A U112G | -6.29 |
| A18U A66C | -4.55 |
| G19A G69A | -4.57 |
| G19A G69U | -1.71 |
| A16U U32A A46U A103C A111G | -5.71 |

| Variant | polymerase ribozyme fitness (log ratio) |
| --- | --- |
| A18C G25U A41G C53U C124A | -6.92 |
| G19A C40U G45C G61C C124A | -3.57 |
| A18G G19U A46C C56A U87A | -2.82 |
| G17U G48A A50U G61C G93A U106A | -5.21 |
| G17A C40U | -3.88 |
| G17A G63U U133C | -3.8 |
| C20A A46U C72G | -4.27 |
| G19A G77C | -2.48 |
| G17A A43U C88A U96A U129A | -3.98 |
| A18U C31U | -5.66 |
| G17A G61U C85A C97U | -4.18 |
| G19C G71U G120U G122A C123U | -3.78 |
| A18C G71C | -4.19 |
| A18C C62G U87C A90C G110C C115A | -7 |
| A18U G44A U54A C86U U106A | -5.25 |
| G17U G60C A121G | -0.0519 |
| G17C U78A A111U | -6.19 |
| A18C U32C | -2.05 |
| A18C G58C | -2.1 |
| G19C C20A | -6.28 |
| G17A U116C | -3.7 |
| A18C A29U C88U C89U C97U | -4.49 |
| G17U G63C | -3.04 |
| A18C G44A G61U C85G A121U | -2.31 |

| Variant | polymerase ribozyme fitness (log ratio) |
| --- | --- |
| A18U U21C G36A C114U | -3.69 |
| G17A G120U | -1.62 |
| C20A A46U G52A | -3.85 |
| G17C C72U U78G U116A A119C G120A | -5.61 |
| A18C G19U C72G C102A C104G U106A C123G | -5.8 |
| G17C A43C A83U | -6.26 |
| C20A A41C C82A | -4.5 |
| G19A C72U | -3.79 |
| C20A A24U U54A C115G | -6.69 |
| A18U G39U G61U C97U U130A | -4.49 |
| G17U A46U C53G G63C A83C C85G C89U A121C C123U U126A | -6.58 |
| G17A C53A C104U U133A | -2.46 |
| G19U G39C C53U C124A | -2.93 |
| G17U C123A | -1.2 |
| G19A C72U A75U C114A | -2.05 |
| A16U G69U A121C | 1.22 |
| C20A | -2.6 |
| A18C G36U | -4.02 |
| G19U C89U G120C | -2.25 |
| G19C G63C | -2.72 |
| G19U U54G C56U C123G | -6.86 |
| A18C U92G | -2.86 |
| A18C C56G C72U C124U | -0.737 |
| C20A A84C C88A U92G C114A | -4.5 |

| Variant | polymerase ribozyme fitness (log ratio) |
| --- | --- |
| A18U G113U C114U C124A U130C | -2.93 |
| A18C A37G G110C | -6.11 |
| G19U A46C | -3.44 |
| A18C C40U G48A C56G A84C C114U | -5.13 |
| G19A U78C C124A U129C | -1.77 |
| A18G C34A | -5.57 |
| A18U A26G C56U C123G | -0.0936 |
| G19A C53U | -2.82 |
| A18U G39U C73U C85G | -4.26 |
| G19A C49U G113U | -2.65 |
| G19A C124A U129C | -2.22 |
| G17U C70G | -4.78 |
| G17U G63U U133A | -3.87 |
| G17A G71U | -3.07 |
| G17A A90C | -3.17 |
| G19C C101A G120U C124A G135C | -3.1 |
| A18C C72U G113C | -3.97 |
| G17U G69U A111G U133G | 0.0717 |
| A18U A46U C97U A103U G120U C123G | -6.88 |
| G19A C56U C115A | -3.68 |
| A18U G39A U54A C70A C124U G127A | -4.66 |
| A18G U54A G77A U109G | -3.13 |
| G17A U54C G120U | -1.75 |
| G19U A105U U106A G113C | -0.75 |

| Variant | polymerase ribozyme fitness (log ratio) |
| --- | --- |
| G19U U54G A68G C70G G117C | -5.56 |
| G19A U38C G63U C114A A121G | -4.24 |
| A18U G61C G120A | -4.67 |
| A18G G23A C53U U59C C79A G117C U133C | -5.37 |
| G17C C20A G63U | -4.87 |
| G17U A37C C53A A83U A90U A91C | -3.91 |
| G19C C40A C85U U112A | -2.1 |
| A16U G60C | -2.17 |
| G19A G47A C88U | -2.72 |
| G19C C22A C53G U59G C123A | -5.66 |
| G19U A43U G60C C82G | -3.71 |
| A18U C79U C101G | -4.83 |
| A18C G48A A119G G120A U126A | -3.21 |
| G17U U38G G45A C88U C101U | -2.92 |
| G17A G60U C97U | -4.13 |
| G17U A29G A37U U112G | -3.31 |
| A18C G48A C94G | -3.96 |
| G17A A95U | -3.81 |
| A18U C114U | -3.74 |
| G17A C20A G61C A119U C124A | -5.19 |
| G17A U78C | -3.04 |
| A18U U81A C114A | -3.7 |
| A18C C89G U116C C124A | -0.0811 |

Source: the RNAGym collection of RNA variant scans (doi:10.1073/pnas.2313332121)
